From the nanobody polyreactivity screen of Harvey et al. (2022)

Test: yeast display, Sf9 membrane polyspecificity reagent, FACS + sequencing; frameworks hold sequencing errors
Outline: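 A nanobody's polyreactivity label depends on the gate it was sorted from. Yeast display cells were stained with 10% biotinylated, detergent-solubilized Sf9 membrane reagent for 1 hour at 4 °C, enriched on streptavidin microbeads and sorted by FACS. The low and high (top ~1%) gates were set on anti-HA fluorescence for expression and streptavidin fluorescence for reagent binding.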

Sequence: QVQLVESGGCLVQAGRSLRLSCAASGRTFPTYAMGWYRQAPGKERELVAAIRISGGRTYYADSVKGRFTISRDISKNTVYLQMNSLKPEDTAVYYCATRDRAGYYYWGQGTQVTVSS
- polyreactivity (PSR sort gate): high polyreactivity

Sequence: QVQLQESGAGLVQAGGSLRLICAASGNIFRGDYVGWYHQAPGKEREFVASITGGGNTNFADSVKGRYSISRDNAKKTVYLKMNSLKPEDTAVYYCAVFDAWLARLIFWGQGSQVTVSS
- polyreactivity (PSR sort gate): high polyreactivity

Sequence: QVQLVESGGGLVQAGGSLSLSCAASGRIFNQNAMGWYRQAPGKERELVAAISKSGTRTYYADSVKGRFTISRDNAKNTVYLQMNSLNREDTAVYYCAADYYRRIGGYRYDYDYWGQGTEVTVSS
- polyreactivity (PSR sort gate): high polyreactivity

Sequence: QVQLVESGGGLVHAGGSLRLTCAASGSTFGKYAMGWYRQAPGKERELVAAITWSGASTFYADSVKGRFTISRDNAKNTVYLQMNSMKPEDTAGYYCAARSFKSYYIFDYWGQGTQVTVSS
- polyreactivity (PSR sort gate): low polyreactivity

Sequence: QVQLVESGGGLVQARGSLRLSCSSSGSIFASYAMGWYRRAPGKERELVAAISRRAVLTYYADSVKGSFTISRDNAKNTVYLQMNSLKPEDTAVYYCNARGYSGYQRYGYNYWGQGTQVTVSS
- polyreactivity (PSR sort gate): high polyreactivity

Sequence: QVQLHESGGGLVQVGGSQRLSCAASGNIFYNYAMGWYRHAQGKEREFDATINHGTSINYADSVKGRFTISRDNAKNTVYLQMNSLKPEDTAVYYCAADLSWTDNLFYWGQGTQVTVSS
- polyreactivity (PSR sort gate): low polyreactivity

Sequence: QVQLVESGGGLVQAGGSLRLSCAASGLIFGTYAMGWYREARGIERELVAAITSGGRTYYADSVKGRFTISRDNAKNTVYLQLNSLKPEATAVYYCAAVLSQWGAVFLYVLSTGLDYWGQGTQVTVSS
- polyreactivity (PSR sort gate): low polyreactivity

Sequence: QVQLVESGGGLVQAGGSLRLSCAASGRIFTYYGMGWYRQAPGKERELVAAISWSGGSTYYADSVKGRFTISRDNAKNTVYLQMNSLKPEDTAVYYCNAASRYGGDYWGQGTQVTVSS
- polyreactivity (PSR sort gate): high polyreactivity

Sequence: QVQLVESGGALVQAGGSLRLSCAASGRTYRWYAMGWYRQAPGKESELVARIRGSGGSTYADSVKGRFTISRDNAKNTVNLEMNSLTPEDTAVYYCARKVTGRNGAQFYVSYYYWGQGTQVPVSS
- polyreactivity (PSR sort gate): low polyreactivity

Sequence: QVQLVESVGGLVQAGGSLRLSCAASGRTFPYYAKGGYRQAPWKERELVATISSGGITNYADSVKVRFTISRDNAKNTVYLQMNSLKPEDTAVYYCAADRHWSAGLWRYDYWGQGTQVTVSS
- polyreactivity (PSR sort gate): high polyreactivity

Sequence: QVQLLESAGGLVQAGGSLRLSCAASGTIGYNGWYRQAPGKERELVAAISTRDGSTYYADSVKGRFTISRDNAMNTGYLQINSLKPEDTAVYYCAARYPSDYDYWGQGTQVTVSS
- polyreactivity (PSR sort gate): low polyreactivity

Sequence: QVQLVESGGGLVQAGGSLRLSCAASGFNFRANGMGWYRQAPGKERELVATITSGGTTNYADSVKGRFTITRDNAKNTVYLQMNSLKPEDTAVYYCAKRFVQAYFRLYDYWGQGTQVNVSS
- polyreactivity (PSR sort gate): low polyreactivity

Sequence: QDQLVESGGGLVQARVSLRLSSAASGFIFRWNTMGWYRQAPGKERELVAAISSRGGSTYYAYSVKGRFKISRDNAKNTVYLQMNSLKPEDTAVYYCNAVRGDEYWGQGTQVTVSS
- polyreactivity (PSR sort gate): high polyreactivity

Sequence: QVQLVESGGGKVQAGGSLRLSCAAYGIIFYPYDMGWNRQSPAKERELVAAISIGGGSTYYADSVKGRFTISRDNAKNTVYLQMNSLKPEDNAVYYCAAGTPYGILGYYYWGQGSQVTVSS
- polyreactivity (PSR sort gate): low polyreactivity

Sequence: QVQLVESGGGLVQAGGSLRISCAASGSTFFKNAMGWYRQAPGKERELVAAITWSGDRTYADSVKGRFTISRDNAKNTVYLQMNSLKPEDTAVYYCNVDITGYDDDYWGQGPQVTVSS
- polyreactivity (PSR sort gate): low polyreactivity

Sequence: QVQLVETGGGLVQAGGSLRLSCAASGYTFRYYAMGWYRQAPGKERELVAAISRRGGSTSYADSVKGRFTISRDNAKNTVYLQMNSLKPEDTAVYYCAVYLGGVSPTYGYWGQGTQVTVSS
- polyreactivity (PSR sort gate): high polyreactivity

Sequence: QVQLVESGGGLVQAGGSLRLSCAASGFIIRSYAMGWYRQAPVKERELVAAISRGSRTYYADSVKGRFTISRDNAKNTVYLQMNSLKPEDTAVYYCNADPNVPVETFDYWGQGTQVTVSS
- polyreactivity (PSR sort gate): high polyreactivity
